Laboratory results reported in patent publication US20190127459 (published 2019).

Target: T1, mouse IL-22R (mouse, UniProt Q80XZ4)
T1 chain: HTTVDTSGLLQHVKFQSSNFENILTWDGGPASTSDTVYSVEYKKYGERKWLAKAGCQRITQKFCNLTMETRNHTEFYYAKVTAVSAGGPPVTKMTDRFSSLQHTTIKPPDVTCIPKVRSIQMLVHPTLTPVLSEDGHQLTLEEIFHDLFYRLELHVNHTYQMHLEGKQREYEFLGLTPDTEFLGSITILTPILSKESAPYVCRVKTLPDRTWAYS

B1: 230C9 (antibody, V domains shown)
VH: QVQLVESGGGLVQPGGSLRLSCAASGFTFSSYDMNWVRQAPGKGLEWVSSIYNDASNTAYSDSVKGRFTISRDNSKNTLYLQMNSLRAEDTAVYYCAKVGFSGTYYSESWGQGTLVTVSS
VL: SYELTQPSSVSVALGQTARITCQGGYYAHWYQQKPGQAPVLVIYGQNNRPSGIPERFSGSGAGNTATLTISRAQAEDEADYYCQSGSSSSNAVFGGGTKLTVL
- binding result: no binding
